In article PMC12295313 (2025) one finds Kd data, which are given here for two molecules.

The target in assay [1] is T1, FGFR1c ectodomain (extracellular ligand-binding domain of FGFR1c), P11362.
T1 chain: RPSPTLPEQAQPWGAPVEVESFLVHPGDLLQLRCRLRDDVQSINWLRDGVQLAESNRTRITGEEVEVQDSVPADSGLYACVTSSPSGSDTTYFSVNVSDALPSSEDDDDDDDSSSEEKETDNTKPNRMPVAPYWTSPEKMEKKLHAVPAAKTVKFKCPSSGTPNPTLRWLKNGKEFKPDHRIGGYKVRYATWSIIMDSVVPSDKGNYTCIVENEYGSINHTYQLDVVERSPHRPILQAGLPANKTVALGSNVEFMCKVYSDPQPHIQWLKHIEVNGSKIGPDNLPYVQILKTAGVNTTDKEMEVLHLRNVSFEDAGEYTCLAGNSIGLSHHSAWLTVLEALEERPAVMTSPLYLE
Kind of assay: SPR. To be noted: chains chain, remark: other sources report otherwise.

Assay [2] has as its target T2, FGFR1c ectodomain (extracellular ligand-binding domain of FGFR1c) (UniProt P11362 22-376).
T2 chain: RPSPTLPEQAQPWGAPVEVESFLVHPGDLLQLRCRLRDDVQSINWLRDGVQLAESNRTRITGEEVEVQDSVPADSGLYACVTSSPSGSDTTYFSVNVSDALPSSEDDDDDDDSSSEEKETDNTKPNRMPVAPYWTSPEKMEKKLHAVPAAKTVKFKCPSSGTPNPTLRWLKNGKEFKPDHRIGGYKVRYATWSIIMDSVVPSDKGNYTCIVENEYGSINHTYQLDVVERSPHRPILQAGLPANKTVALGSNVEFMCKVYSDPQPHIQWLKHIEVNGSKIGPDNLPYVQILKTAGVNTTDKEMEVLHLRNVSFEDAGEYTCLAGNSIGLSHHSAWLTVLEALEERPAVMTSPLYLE
Kind of assay: SPR.

B1: Recombinant human wild-type FGF21 (His29-Ser209), Q9NSA1 29-209 (protein)
chain: HPIPDSSPLLQFGGQVRQRYLYTDDAQQTEAHLEIREDGTVGGAADQSPESLLQLKALKPGVIQILGVKTSRFLCQRPDGALYGSLHFDPEACSFRELLLEDGYNVYQSEAHGLPLHLPGNKSPHRDPAPRGPARFLPLPGLPPALPEPPGILAPQPPDVGSSDPLSMVGPSQGRSPSYAS
Take B1: in assay [1], the Kd worked out at 7.96 µM.

B2: FGF21^D2D3 (FGF21 with its R96–V106 region replaced by the L101–T111 segment of FGF1) (ligand)
chain: HPIPDSSPLLQFGGQVRQRYLYTDDAQQTEAHLEIREDGTVGGAADQSPESLLQLKALKPGVIQILGVKTSRFLCQRPDGALYGSLHFDPEACSFLERLEENHYNTYQSEAHGLPLHLPGNKSPHRDPAPRGPARFLPLPGLPPALPEPPGILAPQPPDVGSSDPLSMVGPSQGRSPSYAS
B2 showed a Kd in assay [2] of 3.94 µM.
